One assay addresses T1, 14-3-3η (Homo sapiens, UniProt Q04917).
T1 construct: full length proteins were concentrated by centrifugation; His tag (pProEx HTb vector) (N); made in house; host or cells: E. coli BL21(DE3)
T1 sequence (Q04917 1-246): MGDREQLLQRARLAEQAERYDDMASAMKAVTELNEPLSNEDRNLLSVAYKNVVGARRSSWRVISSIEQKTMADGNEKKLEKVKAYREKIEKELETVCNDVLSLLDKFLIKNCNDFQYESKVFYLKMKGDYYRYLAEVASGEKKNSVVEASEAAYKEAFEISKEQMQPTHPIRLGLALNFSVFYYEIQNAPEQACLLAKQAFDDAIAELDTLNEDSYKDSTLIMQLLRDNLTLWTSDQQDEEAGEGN
In words: Fluorescence anisotropy (FA) competition assay against tracer hDMX361–374^pSer367*. Type of assay: binding. The note with it: 50 nM hDMX361–374^pSer367*. The procedure: A fluorescence anisotropy (FA) competition assay was subsequently carried out using conditions previously found suitable for acylhydrazone formation (pH 6.5, 50 mM NH4OAc, 10 mM aniline) with added DTT (1 mM) to supress disulfide formation. hDMX361–369^pSer367Gly-hydrazide was used to compete with a tracer peptide: hDMX361–374^pSer367* for binding to 14-3-3η (Fig S2, ESI ^†). […] Initial attempts to screen in cocktails, established the aldehydes had no affect on their own (Fig. S3, ESI ^†). We then performed an assay where each aldehyde was screened individually with hDMX361–369^pSer367Gly-hydrazide. A decrease in anisotropy can be attributed to a particular hydrazone product, avoiding the additional step of product identification e.g. by HRMS, and, combines the equilibration step for hydrazone formation with 14-3-3η screening (Fig. 2a). […] To confirm the single-concentration results, a competition assay was performed (Fig. 2b). hDMX361–369^pSer367Gly-hydrazide was equilibrated with 5 equivalents of each aldehyde (product formation confirmed by LC-MS, see Fig. S4, ESI ^†), and serially diluted against the tracer peptide (hDMX361–374^pSer367*) and 14-3-3η protein.
Fig. 2 Dynamic ligation screening based on hDMX361–369^pSer367Gly-hydrazide (a) Anisotropy values of individually screened hydrazones (relative to buffer, zero activity negative control in grey), hDMX361–374^pSer367 (blue) and hDMX361–369^pSer367Gly-hydrazide (red) as positive controls with hits (hDMX361–369^pSer367Gly-hydrazone-FC45 and hDMX361–369^pSer367Gly-hydrazone-SIG17) highlighted in orange boxes (10 μM acetylated hydrazide peptide mixed with 5 eq. of aldehyde, 1 μM 14-3-3η, 50 nM hDMX361–374^pSer367*, 50 mM NH4OAc, 10 mM aniline and 1 mM DTT) (b) competition FA curves for hydrazones taken forward as hits (50 nM hDMX361–374^pSer367*, 1 μM 14-3-3η in 50 mM NH4OAc, 10 mM aniline and 1 mM DTT).
Fig. 3 Dynamic ligation screening based on hDMX361–370^pSer367Gly-hydrazide (a) anisotropy values of individually screened hydrazones (relative to buffer, zero activity negative control in grey), hDMX361–374^pSer367 (blue) and hDMX361–370^pSer367Gly-hydrazide (red) as positive controls with hits highlighted in black boxes (10 μM acetylated hydrazide peptide mixed with 5 eq. of aldehyde, 1 μM 14-3-3η, 50 nM hDMX361–374^pSer367*, 50 mM NH4OAc, 10 mM aniline and 1 mM DTT) (b) representative competition FA curves for hydrazones taken forwards as hits (50 nM hDMX361–374^pSer367*, 1 μM 14-3-3η in 50 mM NH4OAc, 10 mM aniline and 1 mM DTT). […]
Screening was performed using fluorescence anisotropy competition assay, in 50 mM NH4Ac pH 6.5 buffer containing 10 mM aniline, 1 mM DTT. […]
Background: Polarisation of emitted light reports the rotation of a fluorescent probe.

Assay [1] deals with T2, hDMX361–370pSer367Gly* 361-370 (Homo sapiens, UniProt O15151, also: FAM-Ahx, end not given here).
T2 chain: {FAM-Ahx}-DCRRTI[pS]APVG
In words: fluorescence anisotropy.

The target of assay [2] is T3, hDMX361–374pSer367 361-374 (Homo sapiens, UniProt O15151).
T3 chain: DCRRTI[pS]APVVRPK
As to the kind of experiment: fluorescence anisotropy competition.

Assay [3] deals with T4, hDMX361–369pSer367Gly-hydrazone-FC45 361-369 (Homo sapiens, UniProt O15151, reading uncertain; also: printed as hDMX361–369pSer367Gly-hydrazone-FC45 361-369).
T4 chain: DCRRTI[pS]APG-{hydrazone‑FC45}
In words: fluorescence anisotropy competition.

Assay [4] addresses T5, hDMX361–369pSer367Gly-hydrazone-SIG17 361-369 (Homo sapiens, UniProt O15151, reading uncertain; also: printed as hDMX361–369pSer367Gly-hydrazone-SIG17 361-369).
T5 chain: DCRRTI[pS]APG-{hydrazone‑SIG17}
As to the kind of experiment: fluorescence anisotropy competition.

Assay [5] concerns the target T6, hDMX361–369pSer367Gly-hydrazide 361-369 (Homo sapiens, UniProt O15151).
T6 chain: DCRRTI[pS]APG-hydrazide
As to the kind of experiment: fluorescence anisotropy competition.

[6] abbreviates: Fig. 2b experiment, hydrazide equilibrated with 5 eq. aldehyde, serially diluted, 1 μM 14-3-3η, 50 mM NH4OAc, 10 mM aniline, 1 mM DTT, pH 6.5.

Square brackets hold non-standard residues; d marks the D form. Ends that are not written are not given here. Peptide text beside a SMILES is read from it. hydrazide = C-terminal Gly-hydrazide; hydrazone‑SIG17 = not defined here; hydrazone‑FC45 = not defined here; pS = N[C@@H](COP(=O)(O)O)C(=O)O; Ahx = NCCCCCC(=O)O

The molecule `CC[C@H](C)[C@H](NC(=O)[C@@H](NC(=O)[C@H](CCCNC(=N)N)NC(=O)[C@H](CCCNC(=N)N)NC(=O)[C@H](CS)NC(=O)[C@H](CC(=O)O)NC(C)=O)[C@@H](C)O)C(=O)N[C@@H](COP(=O)(O)O)C(=O)N[C@@H](C)C(=O)N1CCC[C@H]1C(=O)NCC(=O)NN` [hDMX361–369^pSer367Gly-hydrazide] (HELM PEPTIDE1{[ac].D.C.R.R.T.I.[O=C([C@H](COP(=O)(O)O)N[*:1])[*:2]].A.P.G.[NN[*:1]]}$$$$V2.0) gave a 50% inhibitory concentration (IC50) on 14-3-3η (setting [6]) of 8.2 ± 1.3 µM.

With `CC[C@H](C)[C@H](NC(=O)[C@@H](NC(=O)[C@H](CCCNC(=N)N)NC(=O)[C@H](CCCNC(=N)N)NC(=O)[C@H](CS)NC(=O)[C@H](CC(=O)O)NC(C)=O)[C@@H](C)O)C(=O)N[C@@H](COP(=O)(O)O)C(=O)N[C@@H](C)C(=O)N1CCC[C@H]1C(=O)NCC(=O)N/N=C/c1cc(Br)cc([N+](=O)[O-])c1` [hDMX361–369^pSer367Gly-hydrazone-FC45] (HELM PEPTIDE1{[ac].D.C.R.R.T.I.[O=C([C@H](COP(=O)(O)O)N[*:1])[*:2]].A.P.G.[O=[N+]([O-])c1cc(Br)cc(/C=N/N[*:1])c1]}$$$$V2.0), on 14-3-3η (setting [6]), the half-inhibitory concentration (IC50) amounted to 10.4 ± 0.3 µM.

For `CC[C@H](C)[C@H](NC(=O)[C@@H](NC(=O)[C@H](CCCNC(=N)N)NC(=O)[C@H](CCCNC(=N)N)NC(=O)[C@H](CS)NC(=O)[C@H](CC(=O)O)NC(C)=O)[C@@H](C)O)C(=O)N[C@@H](COP(=O)(O)O)C(=O)N[C@@H](C)C(=O)N1CCC[C@H]1C(=O)N[C@H](C(=O)NCC(=O)NN)C(C)C` [hDMX361–370^pSer367Gly-hydrazide] (HELM PEPTIDE1{[ac].D.C.R.R.T.I.[O=C([C@H](COP(=O)(O)O)N[*:1])[*:2]].A.P.V.G.[NN[*:1]]}$$$$V2.0), the IC50 on 14-3-3η (Fig. 3b experiment, 1 μM 14-3-3η in 50 mM NH4OAc, 10 mM aniline and 1 mM DTT) was determined as 8.5 ± 1.6 µM.

B1: 14-3-3η (protein)
chain: GDREQLLQRARLAEQAERYDDMASAMKAVTELNEPLSNEDRNLLSVAYKNVVGARRSSWRVISSIEQKTMADGNEKKLEKVKAYREKIEKELETVCNDVLSLLDKFLIKNCNDFQYESKVFYLKMKGDYYRYLAEVASGEKKNSVVEASEAAYKEAFEISKEQMQPTHPIRLGLALNFSVFYYEIQNAPEQACLLAKQAFDDAIAELDTLNEDSYKDSTLIMQLLRDNLTLWTSDQQDEEAGEGN
In assay [1], B1 had a Kd of 0.172 µM. The half-inhibitory concentration (IC50) amounted to 8.5 µM in assay [2], 10.4 µM in assay [3], 13.7 µM in assay [4] and 8.2 µM in assay [5].

What is called IC50 is the concentration that gives 50% inhibition. Higher therefore signals a need for much substance. The term Kd denotes the free concentration of one partner at which half of the binding sites on the other are occupied at equilibrium, for simple one-to-one binding. A higher Kd goes with lower affinity.

These data come from paper PMC9092428, “Towards identification of protein–protein interaction stabilizers via inhibitory peptide-fragment hybrids using templated fragment ligation” (RSC Chemical Biology, 2022).
